{
  "source": "patent CN114349851A",
  "about": "(SHANGHAI NAI BIOTECHNOLOGY CO LTD, dated 2022)",
  "key": {"新冠病毒全长S蛋白 (Spike-trimer)": {"molecular_target": "T1, 新冠病毒全长S蛋白 (Spike-trimer) (SARS-CoV-2, UniProt P0DTC2 14-1213)", "T1 construct": "also called S-FL", "test": "BLI (Octet RED96), His-tagged nanobody on Ni-NTA sensor"}, "B.1.617.1突变株RBD蛋白": {"molecular_target": "T2, B.1.617.1突变株RBD蛋白 (SARS-CoV-2 B.1.617.1, UniProt P0DTC2 319-541)", "T2 construct": "domain: RBD", "test": "ELISA"}, "Delta(B.1.617.2)突变株RBD蛋白": {"molecular_target": "T3, Delta(B.1.617.2)突变株RBD蛋白 (SARS-CoV-2 Delta (B.1.617.2), UniProt P0DTC2 319-541)", "T3 construct": "domain: RBD; also called RBD-Delta; RBD-Delta(B.1.617.2)", "test": "BLI (Octet RED96), His-tagged nanobody on Ni-NTA sensor"}},
  "data": [
    {"binder": "纳米抗体C5 (C5克隆) (VHH, also called C5抗体; C5 nanobody) VHH: DVQLVESGGGSVQAGGSLRLSCAASGKYSHLGFLGWFRQAPGKEREGVAAGLGAYEDGYYADSVKGRFTVSLDNAENTVYLQMNSLKPEDTALYYCAALVVFSRDSPEFLAQNYWGQGTQVTVSS", "values": [
      {"measurement": "Kd", "setting": "新冠病毒全长S蛋白 (Spike-trimer)", "value": 18, "unit": "nM"}
    ]},
    {"binder": "纳米抗体C5D2 (VHH) VHH: DVQLVESGGGSVQAGGSLRLSCAASGEYSQLRFLGWFRQAPGKEREGVAAGLGANEDGYYADSVKGRFTVSLDNAENTVYLQMNSLKPEDTALYYCAALVIFSHDGPEFLAQNYWGQGTQVTVSS", "values": [
      {"measurement": "binding result", "setting": "B.1.617.1突变株RBD蛋白", "value": "no binding"},
      {"measurement": "Kd", "setting": "Delta(B.1.617.2)突变株RBD蛋白", "value": 13.1, "unit": "nM"}
    ]},
    {"binder": "纳米抗体C5G2 (VHH) VHH: DVQLVESGGGSVQAGGSLRLSCAASGKFSHLVFLGWFRQAPGKEREGVAAGLGAYESGYYADSVKGRFTVSLDNAENTVYLQMNSLKPEDTALYYCAALVVLSRDNTEFIAHNYWGQGTQVTVSS", "values": [
      {"measurement": "binding result", "setting": "B.1.617.1突变株RBD蛋白", "value": "no binding"},
      {"measurement": "Kd", "setting": "Delta(B.1.617.2)突变株RBD蛋白", "value": 83.1, "unit": "nM"}
    ]}
  ]
}
